± gives the standard deviation of the averaged measurements.
Experiments:
[1] = tested on: Saccharomyces cerevisiae; experiment: protein stability index of tFT-peptide fusion (C-terminal peptide) (PSI (0-1 scale)); higher = more stable (slower turnover); conditions: genetic background: wild type; temperature: 30 C
[2] = tested on: Saccharomyces cerevisiae; experiment: as above
Procedure: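 MPS profiling in S. cerevisiae of the tFT-X12 degron library: putative degron peptides plus stable controls, 12 aa, fused to the C-terminus of a sfGFP-mCherry timer. Cells are FACS-sorted into 8 mCherry/sfGFP bins and deep-sequenced. PSI runs from 0 (unstable) to 1 (stable). Backgrounds are wild type, das1Δ and doa10Δ at 30 °C, and wild type, das1Δ, cdc34-1 and cdc53-1 at 37 °C; 2-3 technical replicates each.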

[3] = genetic background: cdc34-1, temperature: 37 C
[4] = genetic background: cdc53-1, temperature: 37 C
[5] = genetic background: das1 deletion, temperature: 30 C
[6] = genetic background: das1 deletion, temperature: 37 C
[7] = genetic background: doa10 deletion, temperature: 30 C
[8] = genetic background: wild type, temperature: 30 C
[9] = genetic background: wild type, temperature: 37 C
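Note: PSI is a weighted mean of sequencing reads over stability bins, variants kept only with over 10 reads, mCherry proximal and sfGFP distal, peptide attached via GGGS linker.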

GRVAIFTLLWRI
protein stability index [1]: 0.314 ± 0.12
protein stability index [2, 3]: 0.199 ± 0.066
protein stability index [2, 4]: 0.105 ± 0.041
protein stability index [2, 5]: 0.256 ± 0.063
protein stability index [2, 6]: 0.362 ± 0.01
protein stability index [2, 7]: 0.469 ± 0.052
protein stability index [2, 8]: 0.252 ± 0.032
protein stability index [2, 9]: 0.29 ± 0.012

GSLHWVMVFAVP
protein stability index [1]: 0.489 ± 0.042
protein stability index [2, 3]: 0.604 ± 0.037
protein stability index [2, 4]: 0.6404 ± 0.0044
protein stability index [2, 5]: 0.491 ± 0.025
protein stability index [2, 6]: 0.6582 ± 0.0047
protein stability index [2, 7]: 0.493 ± 0.033
protein stability index [2, 8]: 0.487 ± 0.016
protein stability index [2, 9]: 0.607 ± 0.03

GSVCVVCWELVV
protein stability index [1]: 0.378 ± 0.04
protein stability index [2, 3]: 0.4883 ± 0.0024
protein stability index [2, 4]: 0.583 ± 0.0091
protein stability index [2, 5]: 0.344 ± 0.029
protein stability index [2, 6]: 0.5561 ± 0.0013
protein stability index [2, 7]: 0.26 ± 0.0046
protein stability index [2, 8]: 0.293 ± 0.017
protein stability index [2, 9]: 0.4792 ± 0.0027

GSVGFICCVVVV
protein stability index [1]: 0.412 ± 0.0011
protein stability index [2, 3]: 0.29 ± 0.022
protein stability index [2, 4]: 0.4314 ± 0.0042
protein stability index [2, 5]: 0.332 ± 0.03
protein stability index [2, 6]: 0.515 ± 0.0078
protein stability index [2, 7]: 0.268 ± 0.017
protein stability index [2, 8]: 0.298 ± 0.031
protein stability index [2, 9]: 0.4546 ± 0.0022

GTETWVFVLLKF
protein stability index [1]: 0.218 ± 0.031
protein stability index [2, 3]: 0.102 ± 0.021
protein stability index [2, 4]: 0.0712 ± 0.011
protein stability index [2, 5]: 0.169 ± 0.036
protein stability index [2, 6]: 0.224 ± 0.019
protein stability index [2, 7]: 0.302 ± 0.026
protein stability index [2, 8]: 0.165 ± 0.013
protein stability index [2, 9]: 0.179 ± 0.011

GVFFHFFFLFCF
protein stability index [1]: 0.43 ± 0.013
protein stability index [2, 3]: 0.332 ± 0.025
protein stability index [2, 4]: 0.352 ± 0.01
protein stability index [2, 5]: 0.324 ± 0.018
protein stability index [2, 6]: 0.447 ± 0.0093
protein stability index [2, 7]: 0.3913 ± 0.0038
protein stability index [2, 8]: 0.297 ± 0.028
protein stability index [2, 9]: 0.413 ± 0.0047

GVSRRWFSLRCI
protein stability index [1]: 0.214 ± 0.0074
protein stability index [2, 3]: 0.627 ± 0.039
protein stability index [2, 4]: 0.717 ± 0.015
protein stability index [2, 5]: 0.612 ± 0.029
protein stability index [2, 6]: 0.75 ± 0.013
protein stability index [2, 7]: 0.125 ± 0.009
protein stability index [2, 8]: 0.15 ± 0.011
protein stability index [2, 9]: 0.2424 ± 0.0022

GVVCCVVVGRMG
protein stability index [1]: 0.503 ± 0.053
protein stability index [2, 3]: 0.619 ± 0.024
protein stability index [2, 4]: 0.659 ± 0.024
protein stability index [2, 5]: 0.474 ± 0.024
protein stability index [2, 6]: 0.665 ± 0.018
protein stability index [2, 7]: 0.445 ± 0.032
protein stability index [2, 8]: 0.451 ± 0.013
protein stability index [2, 9]: 0.63558 ± 6.8e-05

GVVRKLCHWVVA
protein stability index [1]: 0.426 ± 0.04
protein stability index [2, 3]: 0.476 ± 0.0049
protein stability index [2, 4]: 0.516 ± 0.031
protein stability index [2, 5]: 0.362 ± 0.027
protein stability index [2, 6]: 0.525 ± 0.0015
protein stability index [2, 7]: 0.286 ± 0.0046
protein stability index [2, 8]: 0.322 ± 0.016
protein stability index [2, 9]: 0.469 ± 0.013

GWVQFVKAAVLF
protein stability index [1]: 0.36 ± 0.053
protein stability index [2, 3]: 0.655 ± 0.063
protein stability index [2, 4]: 0.7587 ± 0.0019
protein stability index [2, 5]: 0.59 ± 0.031
protein stability index [2, 6]: 0.73964 ± 3.5e-06
protein stability index [2, 7]: 0.197 ± 0.0058
protein stability index [2, 8]: 0.211 ± 0.043
protein stability index [2, 9]: 0.4443 ± 0.0032

GYACSIFYLRCV
protein stability index [1]: 0.377 ± 0.014
protein stability index [2, 3]: 0.535 ± 0.037
protein stability index [2, 4]: 0.5771 ± 6.4e-05
protein stability index [2, 5]: 0.496 ± 0.03
protein stability index [2, 6]: 0.6266 ± 0.00063
protein stability index [2, 7]: 0.218 ± 0.0038
protein stability index [2, 8]: 0.23 ± 0.021
protein stability index [2, 9]: 0.444 ± 0.016

GYRFSILSILRV
protein stability index [1]: 0.482 ± 0.025
protein stability index [2, 3]: 0.581 ± 0.031
protein stability index [2, 4]: 0.611 ± 0.014
protein stability index [2, 5]: 0.513 ± 0.024
protein stability index [2, 6]: 0.627 ± 0.012
protein stability index [2, 7]: 0.488 ± 0.017
protein stability index [2, 8]: 0.47 ± 0.023
protein stability index [2, 9]: 0.612 ± 0.016

HANPGTFGPCTR
protein stability index [1]: 0.696 ± 0.048
protein stability index [2, 3]: 0.654 ± 0.019
protein stability index [2, 4]: 0.7204 ± 0.006
protein stability index [2, 5]: 0.645 ± 0.012
protein stability index [2, 6]: 0.72 ± 0.0081
protein stability index [2, 7]: 0.658 ± 0.019
protein stability index [2, 8]: 0.6499 ± 0.0061
protein stability index [2, 9]: 0.683 ± 0.017

HGVYSVLRFFFC
protein stability index [1]: 0.453 ± 0.0086
protein stability index [2, 3]: 0.664 ± 0.038
protein stability index [2, 4]: 0.723 ± 0.021
protein stability index [2, 5]: 0.659 ± 0.011
protein stability index [2, 6]: 0.671 ± 0.03
protein stability index [2, 7]: 0.329 ± 0.0035
protein stability index [2, 8]: 0.365 ± 0.017
protein stability index [2, 9]: 0.579 ± 0.023

HINRTIWARYQV
protein stability index [1]: 0.362 ± 0.071
protein stability index [2, 3]: 0.648 ± 0.069
protein stability index [2, 4]: 0.742 ± 0.009
protein stability index [2, 5]: 0.643 ± 0.033
protein stability index [2, 6]: 0.75 ± 0.021
protein stability index [2, 7]: 0.156 ± 0.019
protein stability index [2, 8]: 0.174 ± 0.034
protein stability index [2, 9]: 0.429 ± 0.032

HLGNTMIKKLIG
protein stability index [1]: 0.516 ± 0.023
protein stability index [2, 3]: 0.695 ± 0.049
protein stability index [2, 4]: 0.722 ± 0.046
protein stability index [2, 5]: 0.621 ± 0.012
protein stability index [2, 6]: 0.728 ± 0.035
protein stability index [2, 7]: 0.405 ± 0.033
protein stability index [2, 8]: 0.459 ± 0.064
protein stability index [2, 9]: 0.6202 ± 0.0029

HLYPFPSLHFAF
protein stability index [1]: 0.799 ± 0.1
protein stability index [2, 3]: 0.74 ± 0.043
protein stability index [2, 4]: 0.791 ± 0.012
protein stability index [2, 5]: 0.681 ± 0.013
protein stability index [2, 6]: 0.778 ± 0.026
protein stability index [2, 7]: 0.683 ± 0.025
protein stability index [2, 8]: 0.688 ± 0.015
protein stability index [2, 9]: 0.753 ± 0.019

HNQDKNVKYKIG
protein stability index [1]: 0.41 ± 0.037
protein stability index [2, 3]: 0.672 ± 0.023
protein stability index [2, 4]: 0.733 ± 0.034
protein stability index [2, 5]: 0.625 ± 0.032
protein stability index [2, 6]: 0.705 ± 0.021
protein stability index [2, 7]: 0.248 ± 0.006
protein stability index [2, 8]: 0.33 ± 0.039
protein stability index [2, 9]: 0.536 ± 0.0064

HRDVISVVRNMS
protein stability index [1]: 0.43 ± 0.027
protein stability index [2, 3]: 0.625 ± 0.016
protein stability index [2, 4]: 0.70886 ± 0.00045
protein stability index [2, 5]: 0.659 ± 0.058
protein stability index [2, 6]: 0.715 ± 0.019
protein stability index [2, 7]: 0.246 ± 0.022
protein stability index [2, 8]: 0.333 ± 0.022
protein stability index [2, 9]: 0.576 ± 0.012
